Test results: the nanobody polyreactivity screen of Harvey et al. (2022)

Experiment: yeast display, Sf9 membrane polyspecificity reagent, FACS + sequencing; frameworks hold sequencing errors
Method in brief: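 Galactose-induced (36–48 hours) yeast carrying a synthetic nanobody display library were exposed to 10% biotinylated, detergent-solubilized Sf9 membrane reagent at 4 °C for 1 hour. FACS followed streptavidin microbead enrichment, using low and high (top ~1%) gates for expression (anti-HA) and reagent binding (streptavidin). Colony PCR, MiSeq 2 × 250 sequencing and CDR-length filtering followed. Labels for polyreactivity reflect the gate of origin.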

Sequence	polyreactivity (PSR sort gate)
QVQLVESGGGLVQAGGSLRLSCAASGFIFSTYAMGWYRQAPGKERELVAAISWSGGRTNYADSVKGRFTISRDNAKNTVYLQMNSLKPEDTAVYYCAVGGERGARIGSNHRGSRYDYWGQGTQVTVSS	high polyreactivity
QVQLVESGGGLVQAGGRLRLSCAASGSTNYRYAMRWYRQAPGKERELVATISRTGARTNYADSVKGRFTISRDNAKNTVYLQMNSLKPEDTAVYYCAASAPYIYYWGQGTQVTVSS	high polyreactivity
QVQLVESGGGLVQAGGSLRLSCAASGNTFTYYAMGWYRQAPGKERELVAAINIDVASTYYADSVKGRFTISRDIAKNTVYLQMNSLKPEDTAVYYCAAEVGVYPVYWYDYWGQGTQVTVSS	low polyreactivity
QVQLVESGGGLVQAGGSLRLSCAASGRILYSYAMGWYRQAPGKERELVAAISSTGSTYYADSVKGRFTISRDNAKNTVYLQMNSLKPEDTAVYYCAATFYPYQVHHYYYWGKGTQVTVSS	low polyreactivity
QVQLVESGGGLVQAGGSLRLSCAASGRTFYKYMGWYRQAPGKERELVAAIRWSGGSTYYADSVKGRFTISRDNAKNTVYLQMNSLKPEDTAVYYCAAGKQAPAVNYGYYYWGQGTQVTVSS	low polyreactivity
QVQLVESGGGLVQAGGSLRLSCAASGFIFDWNAMGWYRQAPGKERELVAAITWGGDGTFYADSVKGRFTISRDNAKNTVYLQMNSLKPEDTAVYYCAADSDSSFWWYYSWGQGTQVTVSS	low polyreactivity
QVQLVESGGGLVQAGGSLRISCAASGFTFWLYAMGWYRQAPGKERELVATISWSGGSTYYADSVKGRFTISRDNAKNTVYVQMNSLKPEDTAVYYCATRYRSYSVFGYGYWGQGTQVTVSS	high polyreactivity
QVQLVESGGGLVQAGGSLRLSCAASGIIFSSNVMGWYRQAPGKERELVAAISRSGDRSYYADSVKGRFTISRDNAKITVYLQMNSLKPEDTAVYYCAGRVRVNVVSNGYWGQGTQVTVSS	high polyreactivity
QVQLVESGGGLVQAGGSLRLSCAASGRTFGIYAMGWYRQAPGKERELVAAIRWRDGSTYYADSVKGRFTISRDNAKNTVYLQMNSLKPEDTAVYYCAATSRVYVRGSYWKYGYWGQGTQVTVSS	high polyreactivity
QVQLVESGGGLVQEGGSLRLSCAASGRIYARNAMGWYRQAPGKERDLVAAIRNSDGSTYYADSVNGRFTISRDNAKNSVYLQMNSLKPEDTAVYYCNTVPYPAYLARMDYWGQGTQVTVSS	high polyreactivity
QVQLVESGGGLVQAGGSLRLSCAASGRIFVVYAMGWYRQAPGKERELVAAITGGGRTNYADSVKGRFTISRDNAKNTVYLQKNSLKPGDSAVYYCAAGTRSDARRYYYWGQGTQVTVSS	low polyreactivity
QVQLVESGGGLVEAGGSLRLSCAASGSTFGYNAMGWYRQAPGKERELVAAISWSGGSTYYADSVKGRFTISRDNAKNTVYLQMNSLKPEDTAVYYCATPYVKWNDYWGQGTQVTVST	low polyreactivity
QVQLVESGGGLVQAGGSLRLSCAASGRTFYGYAMGLYRQAPGKERELGASIRQSAGRTYYADSVKGRFTISRDNAMNTVYLQMNSLNPEDTAVYYCAASIFLRSFYQQGNYWGQGTQVTVSS	high polyreactivity
QVQLVDSGGGLVQAGGRLRLSCAASGFIFGRNAMGWYRQAPGKERELVAGISSSGVRTFYADSVKGRFTISRDNAKNTVYLQMNSLKPEDNAVYYCATRGRVYPTKYSLDEDYWGQGTQVTVSS	high polyreactivity
QVQLVESGGGLVQAGGSLRLSCAASGFTFYFYAKGWYTQSPGKERELVASISSSGGSTYADSVKGPFTISRDNAKNTVYLQMNSLKPEDTAVYYCAATEIFRFRYVAVGYDYWGQGTQVTVSS	low polyreactivity
QVQLVETGGGLVQAGVSLRISCAASGRTFSVYTMGWYRQAPGKERELVAAIRGRGGSTYYADSVKGRFTISRDNAKNTVYLQMNSLKPEDTAVYYCAARASIFGATFDYWGQGTQVTVSS	high polyreactivity
QVQLVESGGGLVQAGGSLRLSCAASGSTFFTNAMGWYRQAPGKERELVAAINFRGSTYYADSVKGRFTISRDNAKNTVYLQMNSLKPEDTAVYYCATDRQRSYRTVRSPIFNYWGQGTQVTVSS	high polyreactivity
QGQRVESGGGLVQAGGSLRLSCAASGSTFEDNAMGWSRPAPGKERELVAAITTGGGSTYYADSVKGRFTISRDNAKNTVYLQMNSLKPEDTAVYYCAADWSYYYSRNYESDYWGQGTQVTVSS	low polyreactivity
QVQLVESGGGLVQAGGSLRLSCAASGFIFYRNTMGWYRQAPGKERELVATISRRGGSTYYADSVKGRFTISRDNAKHTVYLQMNSLKPEDTAVYYCNADQEYSRPRYGMDYWGQGTQVTVSS	high polyreactivity
QVQLVESVGGLVQAGGSLRLSCAASGSTIGWNAMGWYRQAPGKERELVAAISSSGGSTNYADSVKGRFTISRDNAKNTVYLQMNCLKPEDTAVYYCAKGRRPGYGYGYWGHGTQVTVSS	low polyreactivity
QVQLVESGGGLVQAGGSLRLSCAASGIIFDTYAMGWYRQAPGKERELVAAISRSGDTTYYADSVKGRFTISRDNAKNTVYLQMNSLKPEDTAVYYCNRGNRWNFDSWGQGTQVTVSS	high polyreactivity
QVQLVESGGGLVQAGGSLRLSCAASGSIFYDYAMGWYRQAPGKERELVAAISSSGSSTYYADSVKGRFTISRDNAKNTVYLQMNSLKPEDTAVYYCAAYSRRQWKYDYWGQGTQVTVSS	high polyreactivity

Sequence	polyreactivity (PSR sort gate)
QVQLVESGGGLVQAGGSLRLSCAASGSTFRLYAMGWYRQAPGKERELVAAISQRGGSTYYADSVKGRFTISRDNAKNTVYLQMNSLKPEDTAVYYCNTDWYRKWGKPYYYWGQGTQVTVSS	high polyreactivity
QVQLVESGGGLVQAGGSLRLSCAASGSIIYYYAMGWYRQAPGKERELVASITRGGSTYYADSVKGRFTISRDNAKNTVYLQMNSLKPEDTAVYYCNADLGAYVPYDYWGQGTQVTVSS	high polyreactivity
QVQLVESGGGLVQAGGSLRLSCAASGSTFFSNAMGWYRQAPGKERELVATIRVGGGSTYADSVKGRFTISRDNAKNTVYLQMNSLKPEDTADYYCAADDSDTRYTRSRYGYWGQGTQVTVSS	low polyreactivity
QVQLVESGGGLVQAGGSLRLSCAASGRIFNYNAMGWYRQAPGKERELVAAISSGGDTYYADSVKGRFTISRDNAKNTVYLQINSLKPEDTAVYYCGSTFVVKGTRFGYWGQGTQVTVSS	high polyreactivity
QVQLVESGGGLVQAGGSLRLSCAASGFTFSQYAMGWYRQAPGKERELDAAISWNGGSTYYADSVKGRFTISRDNAKNTVYLQMNSLKPEDTAVYYCAAYGYYTKVTKYDYWGQGTQVTVSS	high polyreactivity
QVQLVESAGGLVQAGGSLRLSCAASGFIFGGNAMGWYRQAPGKERELVAAITARSGSTYYADSVKGRFTISRDNAKNTVYLQMNSLKPEDTAVYYCATPVYRSTYEYDYWGQGTQVTVSS	low polyreactivity
QVQLVESGGGLVQAGGSLRLSCAASGIIFATYAMGWYRQAPGKERELVASISTGDSTNYADSVKGRFTISRDNAKNTVYLQMNSLKPEDTAVDYCNADSYPYYVYGSNDYWGQGTQVTVSS	low polyreactivity
QVQHVESGGGLVQAGGSLRLSCAASVSIFEYYAMGWDRRAHGKERELVARITDSGGSTYADSVKGRFTISRDNAKNTVYLQMSSLKPEDTAVYYCAADDNYFDFDYWGQGTQVTVSS	low polyreactivity
QVQLVESGGGLVQAGGSLRLSCAASGGIKRPYAMGWSRQAPRKERELVAAISYSGGSTYYADSVKGRFTISRDTAKISVYLLMNSLKTEDTAVYYCIAYRQCSNVLTTYEYWGKGTQVTVSS	high polyreactivity
QVQLVESGGGLVQAGGSLRLSCAASGSIFRRNPMGWYRQAPGKESELVAAISSSGGSTYYADSVKGGFTISRDIAKNTFYLQMNSVKPEDTAVYYCAARFGPQYRFDYWGQGTQVTVSS	high polyreactivity
PVQLVESGGGLVQAGGRLRLSCASSGLTFYYYAMGWYLQSPGKESELVAALSRSGGSTYYADSVKGRFTISRDNAQNTVYLQMISLKPEDTAVYYCAAREPYEVLLYYYEDYYWGQGTQVTVSS	high polyreactivity
QVQLVESGGGLVQAGGSLRLSCAASGFTLYYYAMGGYRQAPGKERELVAAISYSGGTTYYADSVKGRFTISRDNAKNTVYLLMYSLKPEDTAVYYCAAGFYSYSWYVKLAYGYWGQGIQVTVSS	low polyreactivity
QVQLVESGGGLVQARGSLRLSCAASGRILKRYAMGWYRQAPGKERELVAAISYGGGSTDYADSVKGRFTISRDNAKNTVYLQMNSLKPEDTAVYYCAAKVRYYLSLRGSTTRRDDYYWGQGTQVTVSS	low polyreactivity
QVQLVESGGGLVQAGGILRLSCAASGFIFRRYAMGWYRQEPGKERELVAAINYSGGSTYYADSVKGRFTISRDNAKNTVYLKMNSLKPEDTAVYYCAAGSRRGIDPGSDYWGQGNQVTVSS	low polyreactivity
QVQLVESGGGLVQAGGSLRLSCAASGRTFWIYTMGWYRQAPGKEREFVAAISIRGGSTYYADSVKGRFTISRDNAKNTVYLQMNSLKPEDTAVYYCAADGGYSLWADDDYWGQGTQVTVSS	low polyreactivity
QVQLVESGGGLVQAGGSLRLSCAASGSNFGEYAMGWYRQAPGKERELVAAITSGGNTYYADSVKGRFTISRDNAKNTVYLQMNSLKPEDTAVYYCAATRTRYWGGDYWGQGTQVTVSS	low polyreactivity
EVQLVESGGGLVQPGGSLRLSCEASGYIYSRYRMGWYRQAPGKAREFVAAISGGSSTNYADSVKGRFTISRDNSKNTVYLQMNSLRAEDTAVYYCAAYKIDSDPRVYWGQGTQVTVSS	low polyreactivity
QVQLVESGGGLVQAGGSLRLSCAASGSTFSVYAMGWYRQAPGKERELVAAISWSGGSTYYADSVKGRFTISRDNAKNTVYLQMNSLKPEDTAVYYCNATVTYYRYYAYVRRYYWGQGTQVTVSS	high polyreactivity
QVQLVESGGGLVQAGGSLRLSCASSGRIFQYYVKGWYRQAPGKERELVAAITSGGGTKYADSVKGRFTISRDNENNTVYLQMNSLKPEDTAVYYCAAAWFDQYSRYDYWGQGTQVTVSS	low polyreactivity
QVQLVESGGGLVQAGGSLRLSCAASGRIFVYYTMGWYRQAPGKERELVAAITGSGGSTYYADSVKGRFTISRDNAKNTVYLQMNSLKPEDTAVYYCAARYASTGGGYKYYYWGQGTQVTVSS	high polyreactivity
QLQLQESGGGLVLAGGSLRLSCSASGNISVYGSMCWYRQAPGKEREFVATIDPGTNTNYADSVKDRFTISRDNAKNTVYLQMNSLKPEDTAVSYCAVEAGSDWPYRYRGQGTQVTVSS	low polyreactivity
